# Earlier results in publication PMC12207913.
# Target: E6AP (Homo sapiens) (UniProt Q05086)
# Assay: SPR
# Chain of UniProt Q05086 (Q05086 whole entry): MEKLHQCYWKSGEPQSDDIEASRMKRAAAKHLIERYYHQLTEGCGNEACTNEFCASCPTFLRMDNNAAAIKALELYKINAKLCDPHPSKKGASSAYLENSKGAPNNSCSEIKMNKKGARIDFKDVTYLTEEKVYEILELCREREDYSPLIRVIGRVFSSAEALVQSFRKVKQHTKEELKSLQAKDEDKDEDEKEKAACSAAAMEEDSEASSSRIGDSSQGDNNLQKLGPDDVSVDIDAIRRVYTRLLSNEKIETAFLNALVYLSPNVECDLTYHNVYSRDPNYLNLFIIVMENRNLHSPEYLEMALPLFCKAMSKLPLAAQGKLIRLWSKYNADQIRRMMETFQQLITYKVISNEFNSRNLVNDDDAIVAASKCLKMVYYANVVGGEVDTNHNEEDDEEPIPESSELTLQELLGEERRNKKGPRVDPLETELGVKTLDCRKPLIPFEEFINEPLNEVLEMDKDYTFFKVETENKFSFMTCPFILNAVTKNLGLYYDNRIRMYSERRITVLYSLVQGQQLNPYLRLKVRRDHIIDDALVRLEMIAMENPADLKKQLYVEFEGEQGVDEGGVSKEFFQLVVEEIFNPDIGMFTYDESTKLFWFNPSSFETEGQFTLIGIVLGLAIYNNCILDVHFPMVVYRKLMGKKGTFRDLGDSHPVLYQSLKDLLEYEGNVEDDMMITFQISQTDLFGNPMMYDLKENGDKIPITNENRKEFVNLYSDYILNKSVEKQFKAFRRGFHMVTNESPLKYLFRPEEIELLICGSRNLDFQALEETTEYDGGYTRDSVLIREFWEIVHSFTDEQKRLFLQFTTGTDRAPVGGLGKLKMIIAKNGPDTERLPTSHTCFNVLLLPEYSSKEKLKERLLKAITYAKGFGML
substance,measurement,value
HPV16 E6 (from UniProt P03126),Kd,144 pM
